The text below walks through data of the supplement of paper PMC12042874.

The nature of the series: amyloid nucleation score (Sup35N fusion, yeast selection) (log enrichment); library NNK1; higher = more nucleation; inactive = no reads after selection. The method, boiled down: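 The nucleation score is the DiMSum log enrichment of output over input reads, centred on the mode score of non-aggregating sequences. Only sequences with 100 or more input reads were scored, using Illumina sequencing of input and output plasmid inserts. Psi-negative yeast expressing Sup35N fused to peptides of 20 random codons were induced 24 hours with 100 μM copper sulfate and grown 7 days at 30°C on medium lacking adenine and uracil.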

± gives the uncertainty stated by the source.

KVGLLWGT had an amyloid nucleation score of 0.197 ± 0.93. Under TTNMRLFLLYNTTLVMSFNV stands 1.88 ± 0.16.

Substance LCDFLNAYEINGKFSCGGTR gave an amyloid nucleation score of 0.084 ± 0.38. Under KLRIRSWKVFTPNSLLVVAI stands -0.893 ± 1.1; under ASCVKYVW, 1.31 ± 0.66; under DVVTSGILTASSRWYVRRGR, -0.729 ± 1.2. The substance HYKDSITVFFIFHIPIQMMM showed an amyloid nucleation score of 4.25 ± 0.057.

In the case of IVVKV, the amyloid nucleation score is -0.035 ± 0.97. For the substance KTWVYSRRRRCVRPGCCGDV, the amyloid nucleation score is 3.3 ± 0.16. RGFADLCAFEDMCIRFDESL returned an amyloid nucleation score of 0.878 ± 0.64. Under FKCYWAVCIELWYGCSTVGL stands 0.588 ± 1.2; under TGDIISRSLSASIEQNFSSN, 0.443 ± 0.2; under PINLLVLIAGNFYWLWTFGQ, 2.84 ± 0.15.

In the case of YVCKIYFHDFDRNMGILEDH, the amyloid nucleation score came to 1.13 ± 0.85. Under SLILG stands 0.083 ± 0.3; under TTVGNVFSGVHV, 0.027 ± 1.7. For the substance DGSGRGRALTVTIDWAVQLV, the amyloid nucleation score was determined as 0.26 ± 0.88. In turn, GCQLLYAKHIQSIMSQRPKN yielded an amyloid nucleation score of 0.374 ± 0.65.

NDIPLSIRSHS gave an amyloid nucleation score of 0.269 ± 0.37. For the substance GNLLVMVGNMRSIDKC, the amyloid nucleation score worked out at 0.326 ± 0.3. Regarding YMEGAGRYWRGQRKLPPCIA, the amyloid nucleation score was -0.414 ± 0.67. In the case of LLAEASLVKETTLCYHSPSL, the amyloid nucleation score was determined as 0.04 ± 0.56. For TYWEMVHWGQEASMGSIRRR, the amyloid nucleation score amounted to 1.97 ± 0.24. As for QMRSVYVQDTINMALIIHEL, the amyloid nucleation score was 0.617 ± 0.27. As to MRRPVKCYGVVTL, the amyloid nucleation score is -0.299 ± 1.1. LFTNMYSRVLTFLM: the amyloid nucleation score was -0.441 ± 1.7.

TGFVWWLFGCGWTLVDRMWF had an amyloid nucleation score of -0.79 ± 0.69. Under LWNIIVSIKGRIVESLAPTY stands -0.113 ± 0.51; under LCWTIWV, -1.61 ± 2.4. Under PQSHQKTRTFLFMRSTSSMW stands -0.847 ± 0.52; under GEDGG, 0.148 ± 0.52. In turn, VLCSMDSVGSSGASGIFTYM displayed an amyloid nucleation score of -0.025 ± 0.4. Under AVGYYCKSINRKHFIVEKLQ stands -0.298 ± 0.4; under RNLEVIYNSI, 0.229 ± 0.52; under EVISPFQLSSDVGGMSRLGV, 0.73 ± 0.72.

Substance YSRIARLDVKRVGHEPDVRL yielded an amyloid nucleation score of -0.921 ± 2.4. GLCGVILCELISNVREGKSK yielded an amyloid nucleation score of 4.97 ± 0.084. As for GETRGVPPNFFTPIIQLSSA, the amyloid nucleation score entry is “inactive”.

In the case of NWSEWGSRIHFKCWIEMLLR, the amyloid nucleation score amounted to 0.174 ± 0.55.

Consider MRSWIVIMALKM, for which the amyloid nucleation score is -1.34 ± 0.85. For LRGVPLYFDGRHMWYAFSRY the value was -0.424 ± 0.47; for ISLIFHVMNDLWCIAIELGS, 0.183 ± 0.59. The substance YSIYRINFPVIALHFTGHCV registered an amyloid nucleation score of -0.902 ± 0.9.

PRGLP came in with an amyloid nucleation score of 0.694 ± 0.9. For FRMGFISYQTQTLTSRVFSF the value was 2.73 ± 0.19. In turn, AVIAMYRVNAPSC registered an amyloid nucleation score of 1.15 ± 0.41. DKRKVRFAVMFNWRRELRY displayed an amyloid nucleation score of 0.708 ± 0.7. On to HLIKRYGYSCVRWVC, for which the amyloid nucleation score is 0.003 ± 0.53. Under IASSSTRFLYV stands 0.813 ± 0.51; under NLYFIHVSRMIWSNSV, 5.02 ± 0.075; under RFEMNCWSC, -0.802 ± 0.39. Under MWLFYRWVRSCTCP stands -0.042 ± 0.32. For PPETRTPVINRSLSIEFDPK the value was -0.022 ± 0.68.

LLSCSYMKIVFI had an amyloid nucleation score of 1.47 ± 0.16.

In the case of LLFCRFRSWDRDHRWCRCD, the amyloid nucleation score turned out to be 1.95 ± 0.66.

LYPNRAGGRLAGLGGMPYE displayed an amyloid nucleation score of 0.085 ± 0.44.

The substance RNYLIDV came in with an amyloid nucleation score of -0.668 ± 0.4. Under LCLKF stands 0.77 ± 0.97; under LFADYILCTCAGCGTGAWEM, -0.092 ± 1.1; under RVWCLRTLKCLIAAR, 0.189 ± 0.45. For MESLIRFSPASKIVISPFTV the value was 0.748 ± 1.2; for KAEVRVRARELAEGMGARGR, 0.693 ± 0.72; for DPTTPYDISGIWLRLEVRAD, -0.175 ± 0.46. Consider DAASHYINLCNHSAEFSKVG, for which the amyloid nucleation score stood at 1.42 ± 0.53. Under DAGMH stands 0.189 ± 0.3; under GMSGGWPIYKLGSS, 1.05 ± 0.25; under FVLTYDLMLLQSGFNSRL, 0.756 ± 0.87. For VDRILFNVLAVSFDMELRSL, the amyloid nucleation score was 0.224 ± 0.24. Consider TLGFKIVDGIRGNMLVGPGI, for which the amyloid nucleation score was -0.081 ± 0.73.

Take EQQLQRM: the amyloid nucleation score entry is “inactive”. For HFVRFRRAMSRHGRVAST the value was -0.979 ± 0.75. For NVDFLISQSRIFYIERLSSQ the value was 2.77 ± 0.16; for GEYLRLSIWGLDKDNKGVQ, -0.073 ± 0.42. DDMCFLN showed an amyloid nucleation score of 0.797 ± 0.34. The substance SVLNSDCNCGIKSWFTDIIM gave an amyloid nucleation score of 1.96 ± 0.4.

LYAVLDILVMFMLMSPP returned an amyloid nucleation score of 0.253 ± 0.36.

The substance LLRSILTMAY gave an amyloid nucleation score of 0.605 ± 0.43.

As to WAWYLCSPESANFHNLHRLW, the amyloid nucleation score was 0.324 ± 1.1. For IYEMVGLTNVEFWYTKKYCS, the amyloid nucleation score was -0.003 ± 0.18. Under SHVFAIRT stands 0.574 ± 0.77; under HRVLYIPALDNVVCRDIWRV, 1.29 ± 0.46. Turning to SELEIA, the amyloid nucleation score result was “inactive”. For SFNWPGFPDCFGPFRAVFIS the value was -0.61 ± 1.1; for NTCHKIDSTI, -0.13 ± 0.59; for PLGGLGYV, 0.543 ± 0.73. Under RNLTDQL stands 2.99 ± 0.2; under MPLYLVCDFLNYGFVISVSS, 4.42 ± 0.095. As for RPLVGTGIYSVVRSLFRLCV, the amyloid nucleation score was -1.16 ± 0.59. WCLSG returned an amyloid nucleation score of -0.498 ± 0.48. For LLPWGYD the value was 2.77 ± 0.15. For MYYVIFNTNSHAN, the amyloid nucleation score came out at 4.55 ± 0.093. On to ECMRTRFMGNYNGPGISILY, for which the amyloid nucleation score result is “inactive”.

Turning to CVLPFGLSSG, the amyloid nucleation score was 0.483 ± 0.48. For SGKGMPNMNIPFHMWYQICY the value was 0.001 ± 0.33. For FLQSIEGRSETGRMSRAISV the value was 1.08 ± 0.93; for FKGQSVCFDLVGWFEVLCQG, -0.381 ± 0.85; for IKDRFLEALCVKCGLSYTQG, -0.035 ± 0.26. For YVFFCIHTVGTPLGNCSIDV the value was “inactive”. Turning to LVRRRSKSRVRVPFLRLSMR, the amyloid nucleation score is -0.415 ± 0.72.

HNFLSYFQNRNDYCASN had an amyloid nucleation score of -0.503 ± 0.6. For FRDYLAKPCGGWEEYLVDDT the value was 0.68 ± 0.48; for DIATCRIWTVCTCQMCFISV, 6.17 ± 0.089; for MRRRIQLDLRRFDPSCMKDV, -1.66 ± 1.1. Under LSTVRLFILEPLYGGPPRNG stands -1.4 ± 1.4. Under VFNVV stands -0.605 ± 0.52; under AQNLDPQWWCLVRCDCYPL, -0.49 ± 0.65; under DSSWTWKDVV, 0.397 ± 1.2. On to MSKIGLLRLDDYHRMGFCKQ, for which the amyloid nucleation score was -0.469 ± 0.38. Turning to QVVRIYQVQGLWIMVHR, the amyloid nucleation score is 1.96 ± 0.28. Consider SDGASPFRWCFHSLRMVSAR, for which the amyloid nucleation score is -0.647 ± 1.1. For WTQPVYLAEEGLRVLDNPKA the value was “inactive”; for WGAYTLKVGVDLIP, 0.195 ± 0.57; for DATTTLFL, -0.281 ± 0.77. WISETMFSVSAMSPVTSDAF came in with an amyloid nucleation score of -0.713 ± 0.4. For VLYGGDLALLSFDTGHPLFL the value was 0.297 ± 0.38. Substance MVGQYRYLSPYGW had an amyloid nucleation score of 0.724 ± 1.2. For VIFRDPGQRRLSC the value was -0.858 ± 2.1. For HDSLMRSGSFNTSVTVEY the value was 0.843 ± 0.55.

Consider EFAKNSFAKNTFAADAWLII, for which the amyloid nucleation score was 0.802 ± 0.78. Substance HRSSNVSGLVWSFHRMKYVI gave an amyloid nucleation score of 0.599 ± 0.79. For the substance DTLDLQLRNVRLTRACMAQY, the amyloid nucleation score came to 0.329 ± 0.34. For QAELYPDQNRGCVGLVVPAD the value was -0.544 ± 0.54; for CFVVAWCKTITV, 1.02 ± 0.66; for PSFMMFKSYTPQDFGMH, -0.318 ± 0.99.

Regarding QPNSWELWPCSDLRIRLVEE, the amyloid nucleation score is 0.104 ± 0.34.

Regarding WNYPYIFVGGPKKIGGGRRG, the amyloid nucleation score is 0.584 ± 0.58. Under TGKGSSEHLRSNMNHRLYCA stands 0.85 ± 0.43.

For YRGTLDNKMGFYIGYHHDRS, the amyloid nucleation score was -0.322 ± 0.56. SFNYRIAFFSRYRPYMGSLG showed an amyloid nucleation score of 1.76 ± 0.37.

Substance DAVSYNSPGGELYDLFNLTA returned an amyloid nucleation score of -0.994 ± 0.97. Under LVQMLTVDCATEKLHLAILS stands 0.567 ± 0.64.

In the case of THSIFFVQLRFPFMLTTS, the amyloid nucleation score is -0.269 ± 0.78. For PKNGGQTMAYK the value was -0.665 ± 0.6; for CFNLALLRVLAGTKLYSFMG, 0.64 ± 0.35. Under RNFPTRCMCIQNYAKL stands 2.22 ± 0.17.

Substance GVKLYDFVNRCCVMNLLAVK returned an amyloid nucleation score of 0.428 ± 0.47.

Turning to IKRKG, the amyloid nucleation score was found to be 0.326 ± 0.46. As to TLTVSGAADIITFGSTIVVG, the amyloid nucleation score worked out at 0.193 ± 1.5. For YPYRV the value was -1.12 ± 1.2.

For the substance ASRVQGMYYHVHQPLKQLWV, the amyloid nucleation score entry is “inactive”. For GRSFGQSGRISRAGNVGIIC the value was -0.266 ± 0.38.
